Laboratory results from paper PMC2645937.

Key:
[1] = biological target: E. coli ribonucleotide reductase large subunit α2 (E. coli) (UniProt P00452); experiment: cross-linking
[2] = biological target: ribonucleotide reductase β2 (Escherichia coli) (UniProt P69924); settings: cited from earlier work
[3] = biological target: DAN-β2(V351C): (His)6-β2-C268S/C305S/V351C labelled with dimethylaminonaphthalene (E. coli); experiment: other fluorescence titration

| percent cross-linked [1] [%] | Molecule | also measured |
| --- | --- | --- |
| 19 | BP-β2(V365C): (His)6-β2-C268S/C305S/V365C labelled with benzophenone (enzyme) | – |
| 9 | BP-β2(Y356C): (His)6-β2-C268S/C305S/Y356C labelled with benzophenone (enzyme) | – |
| – | ribonucleotide reductase α2 (from UniProt P00452) | Kd [2]: 200 nM |
| – | E. coli ribonucleotide reductase large subunit α2 (enzyme) MNQNLLVTKRDGSTERINLDKIHRVLDWAAEGLHNVSISQVELRSHIQFYDGIKTSDIHETIIKAAADLISRDAPDYQYLAARLAIFHLRKKAYGQFEPPALYDHVVKMVEMGKYDNHLLEDYTEEEFKQMDTFIDHDRDMTFSYAAVKQLEGKYLVQNRVTGEIYESAQFLYILVAACLFSNYPRETRLQYVKRFYDAVSTFKISLPTPIMSGVRTPTRQFSSCVLIECGDSLDSINATSSAIVKYVSQRAGIGINAGRIRALGSPIRGGEAFHTGCIPFYKHFQTAVKSCSQGGVRGGAATLFYPMWHLEVESLLVLKNNRGVEGNRVRHMDYGVQINKLMYTRLLKGEDITLFSPSDVPGLYDAFFADQEEFERLYTKYEKDDSIRKQRVKAVELFSLMMQERASTGRIYIQNVDHCNTHSPFDPAIAPVRQSNLCLEIALPTKPLNDVNDENGEIALCTLSAFNLGAINNLDELEELAILAVRALDALLDYQDYPIPAAKRGAMGRRTLGIGVINFAYYLAKHGKRYSDGSANNLTHKTFEAIQYYLLKASNELAKEQGACPWFNETTYAKGILPIDTYKKDLDTIANEPLHYDWEALRESIKTHGLRNSTLSALMPSETSSQISNATNGIEPPRGYVSIKASKDGILRQVVPDYEHLHDAYELLWEMPGNDGYLQLVGIMQKFIDQSISANTNYDPSRFPSGKVPMQQLLKDLLTAYKFGVKTLYYQNTRDGAEDAQDDLVPSIQDDGCESGACKI | Kd [3]: 380 nM |
